Patent publication US20250257130A1 (NONA BIOSCIENCES SUZHOU, published 2025)
Blank lines part the entries; values can stand above or below the binder they belong to.

Experiments:
[1] = biological target: T1, cynomolgus ROR1 on CHO-K1-cynoROR1 cells (cynomolgus monkey, UniProt A0A2K5WTX7 30-937); assay: flow cytometry on CHOK1-cynoROR1 cells, MFI (Mean) [bottom panel, letter not given]
T1 construct: whole, on cells
Procedure: (§1) Binding of recombinant anti-ROR1 antibodies to human or cynomolgus ROR1-overexpressing cells was tested by flow cytometry. In this example, ROR1-expressing cell lines are HEK293T cell lines that had been transfected to express human ROR1 on the surface (HEK293T-hu ROR1, KYINNO BIOTECHNOLOGY CO., LTD, Catalog #KC-1018), CHO-K1 cell lines that had been transfected to express cynomolgus ROR1 (CHOK1-cyno ROR1), PANC-1 (ATCC, catalog: CRL-1469) or A549 cell lines (Shanghai Institute of Biochemistry and Cell Biology, Chinese Academy of Sciences).
(§2) In brief, anti-ROR1 antibodies were serially diluted in staining buffer (PBS containing 2% FBS). Antibody solution was incubated with 1×10⁵ cells at 4° C. for 1 hour. […] After 1-hour incubation at 4° C., cells were washed twice with staining buffer and subjected to flow cytometry. PR000374 (Bench marker 1) and non-relevant IgG isotype control (Crownbio) were used as positive and negative controls, respectively.

[2] = biological target: T2, human ROR1 on cells (HEK293T-hROR1, PANC-1, A549) (human, UniProt Q01973 30-937); assay: flow cytometry on HEK293T-hROR1 cells, MFI (Mean)
T2 construct: whole, on cells; one molecule for the three cell lines; also called huROR1; cell surface ROR1
T2 sequence (Q01973 30-937): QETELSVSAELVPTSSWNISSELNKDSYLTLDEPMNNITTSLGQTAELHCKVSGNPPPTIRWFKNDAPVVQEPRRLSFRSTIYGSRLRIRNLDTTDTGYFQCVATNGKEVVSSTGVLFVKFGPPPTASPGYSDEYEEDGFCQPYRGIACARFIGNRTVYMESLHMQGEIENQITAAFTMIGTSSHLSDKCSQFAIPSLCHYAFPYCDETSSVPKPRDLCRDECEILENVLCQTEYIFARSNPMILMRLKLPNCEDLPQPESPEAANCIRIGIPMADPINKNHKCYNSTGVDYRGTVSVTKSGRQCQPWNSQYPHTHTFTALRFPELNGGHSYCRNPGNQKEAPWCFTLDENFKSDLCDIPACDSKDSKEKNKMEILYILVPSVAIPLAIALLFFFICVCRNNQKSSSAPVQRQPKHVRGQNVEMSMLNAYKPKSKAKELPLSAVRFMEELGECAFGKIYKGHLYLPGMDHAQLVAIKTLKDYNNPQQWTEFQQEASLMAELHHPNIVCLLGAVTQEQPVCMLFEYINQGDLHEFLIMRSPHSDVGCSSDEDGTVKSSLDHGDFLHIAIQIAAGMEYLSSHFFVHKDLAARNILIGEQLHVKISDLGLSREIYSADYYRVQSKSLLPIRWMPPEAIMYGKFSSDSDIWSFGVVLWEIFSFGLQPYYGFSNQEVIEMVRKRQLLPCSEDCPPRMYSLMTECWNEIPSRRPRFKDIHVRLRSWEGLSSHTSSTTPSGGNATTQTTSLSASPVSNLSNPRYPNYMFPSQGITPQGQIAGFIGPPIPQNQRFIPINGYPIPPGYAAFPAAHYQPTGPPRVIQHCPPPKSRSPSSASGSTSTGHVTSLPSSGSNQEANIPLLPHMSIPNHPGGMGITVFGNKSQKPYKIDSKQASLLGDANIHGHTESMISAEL
Procedure: as §1, §2

[3] = biological target: T3, Human ROR1-ECD-his (Acro Biosystems RO1-H522y) (human, UniProt Q01973 30-406); assay: BLI in-tandem competition; competitor: PR303155
T3 construct: extracellular domain; bought protein; also called hROR1-ECD-his; hu-ROR1-ECD-his
T3 sequence (Q01973 30-406): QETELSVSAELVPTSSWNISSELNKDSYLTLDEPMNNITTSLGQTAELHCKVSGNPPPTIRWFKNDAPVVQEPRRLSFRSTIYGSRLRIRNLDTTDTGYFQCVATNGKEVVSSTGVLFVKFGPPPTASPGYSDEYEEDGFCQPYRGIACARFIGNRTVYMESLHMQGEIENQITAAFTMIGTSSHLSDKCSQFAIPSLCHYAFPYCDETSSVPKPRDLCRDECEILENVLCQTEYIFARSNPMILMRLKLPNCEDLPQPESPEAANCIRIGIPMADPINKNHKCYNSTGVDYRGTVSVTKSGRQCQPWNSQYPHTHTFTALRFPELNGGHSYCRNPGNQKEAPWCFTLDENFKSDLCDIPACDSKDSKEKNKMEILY
Excerpt: (§3) To determine if anti-ROR1 antibodies bind to human ROR1 on different or approximate binding epitopes, the ForteBio Octet® RED96e platform was used to perform epitope competition experiments on the anti-ROR1 antibodies. Human ROR1 protein (Acrobiosystems, #RO1-H522y) was biotinylated and then captured onto SA biosensors (ForteBio, #18-5020) to reach loading level of 0.3-0.4 nm. The in-tandem competition assay format was applied and it contains two association steps. Firstly, the antigen-loaded biosensors bind to each antibody (a.k.a, First antibody, 1st Ab) with a saturating concentration of 200 nM for 180 seconds to reach equilibrium and then secondly bind to the competing antibodies (a.k.a, Second antibody, 2nd Ab) of 200 nM for 180 seconds. The second binding signals were recorded as the 100% signal of each antibody when the first antibodies were replaced by kinetics buffer. All the binding data were analyzed using ForteBio Data Analysis 11.0 software. The inhibition rate is calculated by the following formula: […]

[4] = biological target: T4, hu-ROR2-ECD-his (Acrobiosystems RO2-H52E5) (human, UniProt Q01974 34-403); assay: ELISA, plate coated with hu-ROR2-his at 1 µg/mL
T4 construct: extracellular domain; bought protein; also called Human ROR2 his-tagged protein; Human ROR2, His Tag
T4 sequence (Q01974 34-403): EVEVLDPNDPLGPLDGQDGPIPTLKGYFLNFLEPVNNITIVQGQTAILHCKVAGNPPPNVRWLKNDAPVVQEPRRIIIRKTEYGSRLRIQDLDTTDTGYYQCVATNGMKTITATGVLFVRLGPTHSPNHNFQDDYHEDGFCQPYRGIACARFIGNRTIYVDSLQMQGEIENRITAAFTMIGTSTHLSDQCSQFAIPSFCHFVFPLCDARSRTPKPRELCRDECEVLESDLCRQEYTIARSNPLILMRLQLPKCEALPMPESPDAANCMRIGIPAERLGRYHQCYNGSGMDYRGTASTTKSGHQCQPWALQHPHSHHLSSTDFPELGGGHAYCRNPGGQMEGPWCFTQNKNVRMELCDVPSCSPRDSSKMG
How it was run: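 Plates were coated overnight at 4 °C with 1 μg/mL human ROR2-ECD-his and blocked with 2% BSA. Serially diluted anti-ROR1 antibodies were bound for 1 h at 37 °C, then secondary antibody for 1 h at 37 °C. Detection was by TMB (~5 min), stopped with H2SO4, and read at 450/570 nm.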

[5] = biological target: T2, human ROR1 on cells (HEK293T-hROR1, …); assay: flow cytometry, HEK293T-hROR1 cells
Procedure: as §2

[6] = biological target: T1, cynomolgus ROR1 on CHO-K1-cynoROR1 cells; assay: flow cytometry, CHO-K1-cynoROR1 cells
Procedure: as §2

[7] = biological target: T2, human ROR1 on cells (HEK293T-hROR1, …); assay: flow cytometry, PANC-1 cells
Procedure: as §2

[8] = biological target: T2, human ROR1 on cells (HEK293T-hROR1, …); assay: flow cytometry, A549 cells
Procedure: as §2

[9] = biological target: T3, Human ROR1-ECD-his (Acro Biosystems …); assay: BLI in-tandem competition; competitor: PR303125
Excerpt: as §3

[10] = biological target: T3, Human ROR1-ECD-his (Acro Biosystems …); assay: ELISA, plate coated with hu-ROR1-his at 1 µg/mL
Procedure: Binding of recombinant anti-ROR1 antibodies to hu-ROR1-ECD-his was tested by ELISA. In brief, 1 μg/mL hu-ROR1-ECD-his was added to the 96-well plate, 100 μL each well, incubated at 4° C. overnight, washing the plates with 1×PBST 3 times, 300 ul/well, blocking the plates with 2% BSA in 1×PBST, 200 ul/well at 37° C. for 1 hour, anti-ROR1 antibodies were serially diluted in staining buffer (PBS containing 2% BSA). Antibody solution was added to the plate and incubates at 37° C. for 1 hour, washing the plates with 1×PBST 3 times, 300 ul/well, adding secondary antibody 100 ul/well and incubate at 37° C. for 1 hour, washing the plates with 1×PBST 3 times, 300 ul/well and then add 100 ul/well TMB for about 5 min, stop the reaction by adding 100 ul/well 2M H₂SO₄, read the plates with Molecular device spectra max plus384 at 450 nm and 570 nm.

[11] = biological target: T3, Human ROR1-ECD-his (Acro Biosystems …); assay: BLI in-tandem competition; competitor: PR303147
Excerpt: as §3

EC50 (read off the curve) [1]: ~0.2 µg/mL
EC50 (read off the curve) [2]: ~0.3 µg/mL
Inhibition (%) [3]: -62%
binding result [4]: no binding (tested: about 15 µg/ml)
EC50 [5]: 0.273 µg/mL
MAX(MFI) [5]: 1.5e+07 MFI
EC50 [6]: 0.222 µg/mL
MAX(MFI) [6]: 8.27e+06 MFI
EC50 [7]: 0.463 µg/mL
MAX(MFI) [7]: 883000 MFI
EC50 [8]: 0.16 µg/mL
MAX(MFI) [8]: 668000 MFI
Inhibition (%) [9]: 104%
EC50 (read off the curve) [10]: ~0.002 µg/mL
Inhibition (%) [11]: -88%
B1: PR303125 (antibody, human IgG1, V domains shown)
VH: EVQLLESGGGLVQPGGSLRLSCAASGFTFSSHAMSWVRQAPGKGLEWVSAISGSGDSTHYAASVKGRFTISRDNSKNTLYLQMNSLRAEDTAVYYCETLLRFLESLGNDGFKIWGQGTMVTVSS
notes: HCAb (heavy chain-only, human IgG1 Fc), no light chain

EC50 (read off the curve) [1]: ~0.3 µg/mL
EC50 (read off the curve) [2]: ~0.5 µg/mL
Inhibition (%) [3]: -67%
binding result [4]: no binding (tested: about 15 µg/ml)
EC50 [5]: 0.506 µg/mL
MAX(MFI) [5]: 1.49e+07 MFI
EC50 [6]: 0.314 µg/mL
MAX(MFI) [6]: 1.05e+07 MFI
EC50 [7]: 0.905 µg/mL
MAX(MFI) [7]: 442000 MFI
EC50 [8]: 0.61 µg/mL
MAX(MFI) [8]: 695000 MFI
Inhibition (%) [9]: -45%
EC50 (read off the curve) [10]: ~0.0008 µg/mL
Inhibition (%) [11]: -72%
B2: PR000374 (antibody, human IgG1, kappa, V domains shown)
VH: EVQLVESGGGLVQPGRSLRLSCTASGSDINDYPITWVRQAPGQGLEWIGFINSGGSTWYASWVKGRFTISRDDSKSIAYLQMNSLKTEDTAVYYCARGYSTYYRDFNIWGQGTLVTVSS
VL: DIQMTQSPSSLSASVGDRVTINCQASQSIDSNLAWFQQKPGQPPKLLIYRASNLASGVPDRFSGSGSGTDFTLTISSLEAEDVATYYCLGGVGAVSYRTSFGGGTKVEIKR
notes: positive control; also called Bench marker 1

EC50 (read off the curve) [1]: ~0.03 µg/mL
EC50 (read off the curve) [2]: ~0.04 µg/mL
Inhibition (%) [3]: -62%
binding result [4]: no binding (tested: about 15 µg/ml)
EC50 [5]: 0.044 µg/mL
MAX(MFI) [5]: 1.4e+07 MFI
EC50 [6]: 0.03 µg/mL
MAX(MFI) [6]: 9.24e+06 MFI
MAX(MFI) [7]: 364000 MFI
EC50 [8]: 0.01 µg/mL
MAX(MFI) [8]: 650000 MFI
Inhibition (%) [9]: 80%
EC50 (read off the curve) [10]: ~0.0007 µg/mL
Inhibition (%) [11]: -60%
B3: PR303191 (antibody, human IgG1, V domains shown)
VH: EVQLLESGGGLVQPGGSLRLSCAASGFIFGSYAMSWVRQAPGKGLEWVSGISGTGGNTYYADSVKGRFTISRDNSKNTLYLQMNSLRAEDTAVYFCERGITIHGVVIIPPDYRGQGTLVTVSS
notes: as for B1
